Data taken from patent US20220017601A1 (JIANGSU HENGRUI MEDICINE, published 2022).

Tests used:
human TGF-β1 [1] = target: T1, human TGF-β1 (human, UniProt P01137 279-390); test: cell-based or functional assay
human TGF-β1 [2] = target: T1, human TGF-β1; test: ELISA, plate coated with human TGF-β1, anti-human Fc-HRP, OD 450 nm
Experimental: a. […] Washing 3 times with 250 μl of 1×PBST, 250 μl of 5% milk PBS was added for blocking at 37° C. for 2 hours. c. […] Washing 3 times with 250 μl 1×PBST. e. 100 μl of Anti-human Fc antibody-HRP (1:4000) was added to each well and incubated for 40 minutes at 37° C. f. 100 μl of TMB was added into each well, incubated for 10 minutes at room temperature, and the reaction was stopped by adding 100 μl of 1 M H₂SO₄. g. The absorbance at 450 nm was measured on a microplate reader, and the data was analyzed by Graphpad Prism 5.

[3] = target: human PD-L1 on CHO/PD-L1 cells (CS187108, Promega) (human, UniProt Q9NZQ7 19-290); test: cell-based or functional assay
Chain of human PD-L1 on CHO/PD-L1 cells (CS187108, Promega) (Q9NZQ7 19-290): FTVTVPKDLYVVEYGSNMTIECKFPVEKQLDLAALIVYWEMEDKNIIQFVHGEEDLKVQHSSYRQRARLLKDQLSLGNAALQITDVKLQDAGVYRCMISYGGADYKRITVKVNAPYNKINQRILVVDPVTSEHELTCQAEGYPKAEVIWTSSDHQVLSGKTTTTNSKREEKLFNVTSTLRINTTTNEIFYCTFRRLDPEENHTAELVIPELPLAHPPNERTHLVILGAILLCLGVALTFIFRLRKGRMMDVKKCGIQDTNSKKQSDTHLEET

T1 sequence (P01137 279-390 limits assumed): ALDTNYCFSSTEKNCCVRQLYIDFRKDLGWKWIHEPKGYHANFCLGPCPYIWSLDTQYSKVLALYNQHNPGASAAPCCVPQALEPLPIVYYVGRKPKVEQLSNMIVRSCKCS

B1: PD-L1 antibody (antibody, human IgG4 S228P, kappa, F234A L235A, V domains shown)
VH: QVQLVQSGAEVKKPGASVKVSCKASGYTFTSYWMHWVRQAPGQGLEWMGRIGPNSGFTSYNEKFKNRVTMTRDTSTSTVYMELSSLRSEDTAVYYCARGGSSYDYFDYWGQGTTVTVSS
VL: DIVLTQSPASLAVSPGQRATITCRASESVSIHGTHLMHWYQQKPGQPPKLLIYAASNLESGVPARFSGSGSGTDFTLTINPVEAEDTANYYCQQSFEDPLTFGQGTKLEIKR
notes: Human IgG4 with S228P, F234A, L235A and the C-terminal K mutated to A; also called Ab; PD-L1 antibody IgG4 (AA) (S228P)
- TGFβ-induced pSMAD3 reporter activity (luciferase, HepG2 cells), IC50 (human TGF-β1 [1]): > 500 nM
- binding result (human TGF-β1 [2]): no binding (tested: 1e6 pM (Log(pM) 6))
- EC50 (read off the curve), luminescence of the PD-1/PD-L1 blockade reporter assay [3]: ~300 pM
